# Measured values: US20240158497A1 (published 2024)
# T1: human gp130 extracellular domain (E23-E619) with C-terminal mouse IgG2a Fc (human)
# T1 construct: dimeric; also called hGP130-mFc; human GP130-mFc
# T1 chain: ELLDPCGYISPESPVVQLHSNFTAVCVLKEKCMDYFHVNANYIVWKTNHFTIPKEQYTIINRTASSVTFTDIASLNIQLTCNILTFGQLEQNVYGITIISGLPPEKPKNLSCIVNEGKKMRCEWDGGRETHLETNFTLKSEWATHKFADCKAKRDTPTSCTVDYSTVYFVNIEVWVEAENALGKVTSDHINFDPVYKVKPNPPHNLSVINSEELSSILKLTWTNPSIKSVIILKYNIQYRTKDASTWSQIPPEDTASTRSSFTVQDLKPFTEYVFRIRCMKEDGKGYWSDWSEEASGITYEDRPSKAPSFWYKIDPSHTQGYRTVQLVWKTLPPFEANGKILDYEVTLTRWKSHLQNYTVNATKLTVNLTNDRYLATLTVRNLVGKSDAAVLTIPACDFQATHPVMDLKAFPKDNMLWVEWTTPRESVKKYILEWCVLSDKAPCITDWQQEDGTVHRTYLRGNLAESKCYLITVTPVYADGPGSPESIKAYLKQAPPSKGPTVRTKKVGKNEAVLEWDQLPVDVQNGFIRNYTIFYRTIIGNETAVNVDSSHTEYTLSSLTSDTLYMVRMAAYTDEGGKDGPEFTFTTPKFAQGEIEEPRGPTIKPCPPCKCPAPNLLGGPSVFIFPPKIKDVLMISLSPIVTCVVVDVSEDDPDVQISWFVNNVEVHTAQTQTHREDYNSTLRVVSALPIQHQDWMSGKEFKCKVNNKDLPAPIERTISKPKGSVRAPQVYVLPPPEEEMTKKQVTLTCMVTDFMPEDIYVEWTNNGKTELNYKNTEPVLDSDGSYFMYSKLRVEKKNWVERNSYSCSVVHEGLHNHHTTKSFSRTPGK
# B1: MAb16669 (antibody, V domains shown)
# VH: EVQLVESGGGLVQPGGSLRLSCAASGFTFSSYAMNWVRQAPGKGLEWVSAISGSGDSTYYTDSVKGRFTISRDNSKNTLYLQMNTLRAEDTAVYYCAKEEIVMLVGATPGWFDPWGQGTLVTVSS
# VL: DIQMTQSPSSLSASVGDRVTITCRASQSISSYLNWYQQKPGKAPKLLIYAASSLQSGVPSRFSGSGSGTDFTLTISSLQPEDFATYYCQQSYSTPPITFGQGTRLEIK
# notes: hIgG4 isotype control used
# B2: MAb16659 (antibody, V domains shown)
# VH: QVQLVQSGPEVKKPGSSVKVSCKASGGTIDRNEITWVRQAPGQGLEWMGVIIPILGEAHYERKFQGRLTITMDESTSTAYMELSNLRSEDTAVYYCARERAARGYLDYWGQGTLVTVSS
# VL: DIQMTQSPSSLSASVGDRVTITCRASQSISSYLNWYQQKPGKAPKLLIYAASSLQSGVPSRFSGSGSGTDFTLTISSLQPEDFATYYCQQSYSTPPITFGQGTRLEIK
# notes: hIgG4 isotype control used
# B3: MAb16662 (antibody, V domains shown)
# VH: EVQLVESGGGLVQPGGSLRLSCTASGFTFSNYAIFWVRQAPGKGLEYVSGISNNGVTKYYADSVRDRFTISRDNSRNTVSIQMDSLRTEDMAVYYCARENWGSDDGFDIWGQGTMVTVSS
# VL: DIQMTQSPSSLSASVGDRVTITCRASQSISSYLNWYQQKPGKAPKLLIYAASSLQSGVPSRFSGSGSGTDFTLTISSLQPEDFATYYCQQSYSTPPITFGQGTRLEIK
# notes: hIgG4 isotype control used
# B4: MAb16683 (antibody, V domains shown)
# VH: QVQLVESGGGLVKPGGSLRLSCAASGFTFSDYYMTWIRQTPGKGLDWVSYISSSGTNKYNADSVKGRFTISRDNAKNSLYLQMNSLRAEDTAVYYCVRDPPWGMDVWGQGTTVTVSS
# VL: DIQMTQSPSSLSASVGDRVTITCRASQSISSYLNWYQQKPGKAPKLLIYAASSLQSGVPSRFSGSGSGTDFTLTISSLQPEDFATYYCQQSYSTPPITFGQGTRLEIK
# notes: hIgG4 isotype control used
# B5: MAb16623 (antibody, V domains shown)
# VH: EVQLVESGGGLVQPGGSLRLSCAASGLTFSSYEMNWVRQAPGKGLEWVSHISSAGSTKYYADSVKGRFTISRDNAKNSLFLQMNSLRAEDTAIYYCAGYNYAYYYFGVDVWGQGTTVTVSS
# VL: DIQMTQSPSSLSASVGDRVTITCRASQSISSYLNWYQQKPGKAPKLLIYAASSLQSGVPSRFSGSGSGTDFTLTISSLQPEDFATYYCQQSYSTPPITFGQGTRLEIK
# notes: hIgG4 isotype control used
# B6: MAb16673 (antibody, V domains shown)
# VH: EVQLVQSGAEVKKPGESLKISCKGSGYSFTSYWIDWVRQMPGKGLEWMGIIYPDDSDTRYSPSFQGQVTMSVDKSISTAYLQWSSLKASDTAIYYCARHERGIVEAGTDYYYYYGMDVWGQGTTVTVSS
# VL: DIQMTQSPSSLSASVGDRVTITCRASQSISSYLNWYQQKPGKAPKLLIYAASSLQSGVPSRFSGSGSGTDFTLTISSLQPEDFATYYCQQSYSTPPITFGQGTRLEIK
# notes: hIgG4 isotype control used
# B7: MAb16656 (antibody, V domains shown)
# VH: EVQLVESGGGLVQPGRSLRLSCAASGFTLDDFAMHWVRQAPGKGLEWVSGISWNSGNIGYADSVKGRFTISRDNARNSLYLQMNSLRAEDTALYYCTSGYYLYYAMDVWGQGTTVTVSS
# VL: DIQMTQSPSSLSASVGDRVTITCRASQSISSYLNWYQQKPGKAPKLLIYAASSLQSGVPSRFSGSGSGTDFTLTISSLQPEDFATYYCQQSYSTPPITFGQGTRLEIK
# notes: hIgG4 isotype control used
# B8: MAb16664 (antibody, V domains shown)
# VH: QVQLVQSGTEVKKPGSSVKVSCKASGGTFSTYPINWVRQAPGQGLEWMGGIIPIFGTASYAQKFQGRVAITTDESTSTAYMELNSLRSEDTAVYYCARERPNWGSNDYWGQGTLVTVSS
# VL: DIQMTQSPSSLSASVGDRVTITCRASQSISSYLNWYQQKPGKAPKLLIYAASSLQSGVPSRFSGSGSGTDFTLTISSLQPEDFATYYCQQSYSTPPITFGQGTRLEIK
# notes: hIgG4 isotype control used
# B9: MAb16665 (antibody, V domains shown)
# VH: QVQLVESGGGVVQPGRSLRLACAASGFTFRSYGMHWVRQAPGKGLEWVAVIWYDGSNKYYTDSVKGRFTISRDNSKNTLYLQMNSLRAEDTAMYYCAIDKWATVTTYLFDYWGQGTLVTVSS
# VL: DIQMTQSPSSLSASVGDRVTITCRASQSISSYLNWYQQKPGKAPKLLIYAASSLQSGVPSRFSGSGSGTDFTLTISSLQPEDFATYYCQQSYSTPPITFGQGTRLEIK
# notes: hIgG4 isotype control used
# B10: MAb16637 (antibody, V domains shown)
# VH: QVQLVQSGAEVKKPGASVKVSCKASGYTFTSLGISWVRQAPGQGLEWMGWISAYSGNRDYAQKFQGRVTMTTDTSTSTAYMELRSLRSDDTAVYYCARSLRFDYWGQGTLVTVSS
# VL: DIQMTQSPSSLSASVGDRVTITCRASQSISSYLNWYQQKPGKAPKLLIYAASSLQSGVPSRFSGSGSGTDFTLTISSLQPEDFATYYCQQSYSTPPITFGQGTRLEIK
# notes: hIgG4 isotype control used
# B11: MAb16682 (antibody, V domains shown)
# VH: EVQLVESGGGLVQPGGSLRLSCAASGFTFSTYWMNWVRQAPGKGLEWVANIKEDGSEKYYVDSVKGRFTISRDNAKNSLYLQMNSLRAEDTAVYYCAREGFGVVTYIWGQGTMVTVSS
# VL: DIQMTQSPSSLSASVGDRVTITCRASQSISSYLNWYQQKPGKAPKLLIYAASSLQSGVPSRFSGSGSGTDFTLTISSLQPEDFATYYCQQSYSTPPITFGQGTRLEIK
# notes: hIgG4 isotype control used
# B12: MAb16618 (antibody, V domains shown)
# VH: QVQLQESGPGLVKPSETLSLTCTVSGGSISNYYWTWIRQPPGKGLEWIGHISNSGTTNYNPSLKSRVTISVDTSKNQFSLKLTSVTAADTAVYYCARLPLGIAAVDTDYYYYFGMDVWGQGTTVTVSS
# VL: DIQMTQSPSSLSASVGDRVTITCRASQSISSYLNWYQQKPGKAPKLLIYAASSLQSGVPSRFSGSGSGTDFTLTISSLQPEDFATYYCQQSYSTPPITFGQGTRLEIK
# notes: hIgG4 isotype control used
# B13: MAb16666 (antibody, V domains shown)
# VH: EVQLVESGGGLVQSGGSLRLSCAASGFTFSRYEMNWVRQAPGKGLEWVAYISNTGTTRDYSDSVKGRFTISRDNAKNSLYLQMSSLRVEDTAVYYCVREKFSGTSDWFDPWGQGTLVTVSS
# VL: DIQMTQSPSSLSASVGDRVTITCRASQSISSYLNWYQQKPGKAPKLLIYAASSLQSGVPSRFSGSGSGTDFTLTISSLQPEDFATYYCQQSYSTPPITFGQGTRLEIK
# notes: hIgG4 isotype control used
# B14: MAb16614 (antibody, V domains shown)
# VH: QVQLVESGGGVVQPGGSLRLSCAASGFTFSTYDIHWVRQAPGKGLEWVAVISFDGSNRNYGDSVKGRFTISRDNSDNTLFLEMNNLRFEDTAVYYCAKEGYGVDFQHWGQGTLVTVSS
# VL: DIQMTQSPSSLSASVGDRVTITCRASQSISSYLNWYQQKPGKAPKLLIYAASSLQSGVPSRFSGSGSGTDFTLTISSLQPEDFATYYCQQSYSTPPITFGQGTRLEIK
# notes: hIgG4 isotype control used
# B15: MAb16622 (antibody, V domains shown)
# VH: EVQLVESGGGVVRPGGSLRLSCTASGFTFDDYGMSWVRQAPGKGLEWVSGINWNGGRTEYADAVKGRFIISRDNAKNSLYLQMNSLRAEDTALYFCARTELRWDYWGQGTLVTVSS
# VL: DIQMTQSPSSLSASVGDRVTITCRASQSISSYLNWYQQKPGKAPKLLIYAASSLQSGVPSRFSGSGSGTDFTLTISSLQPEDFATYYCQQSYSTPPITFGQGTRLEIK
# notes: hIgG4 isotype control used
# B16: MAb16676 (antibody, V domains shown)
# VH: QVQLVQSGAEVMKPGASVKVSCRASGYTFSSYDINWVRQAPGQGLEWMGWISTATGNTNYPQKVQGRVTMTTDTSTNTAYMELRSLRSDDTAVYYCTREGNSKGWLDPWGQGTLVTVSS
# VL: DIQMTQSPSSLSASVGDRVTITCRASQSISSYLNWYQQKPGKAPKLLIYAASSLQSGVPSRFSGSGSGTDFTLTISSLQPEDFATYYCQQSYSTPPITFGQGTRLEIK
# notes: hIgG4 isotype control used
# B17: MAb16636 (antibody, V domains shown)
# VH: QLQLQESGPGLVKPSETLSLICTVSGGSISSNNYYWGWIRQPPGKGLEWIGNLYGSGSTYYNPSLKSRVTISVDTSKNQFSLKLSFVTAADTAVYHCARWDTNGGAFDIWGQGTMVTVSS
# VL: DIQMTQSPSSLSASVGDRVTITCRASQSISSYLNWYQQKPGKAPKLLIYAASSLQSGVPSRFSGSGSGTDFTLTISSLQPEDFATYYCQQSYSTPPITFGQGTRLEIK
# notes: hIgG4 isotype control used
# Molecular target: T1, human gp130 extracellular domain …
# Assay: blocking ELISA, 2.5 nM hGP130-mFc on plate-bound CNTFR/CNTF complex
# Experimental: The experiment was carried out using the following procedure. Human CNTFRα was coated at a concentration of […] in HBSS on a 96-well microtiter plate overnight at 4° C. […] Human CNTF at a concentration of 1 μg/ml in HBSS was added to the plate bound CNTFRα for 1 hour at room temperature. In separate dilution plates, a constant amount of 2.5 nM of human GP130-mFc protein was titrated with antibodies ranging from 3.4 pM to 200 nM in serial dilution and with no antibody present. These solutions were incubated for 1 hour at room temperature (RT) and subsequently transferred to the microtiter plates with CNTFRα/CNTF complex without washing. The plates were incubated for 2 hours at RT, washed with PBST buffer, and plate-bound hGP130-mFc was detected with an anti-mFc polyclonal antibody conjugated with horseradish peroxidase (HRP) (Jackson ImmunoResearch Inc). Samples were developed with a TMB solution (BD Biosciences, substrate A and B mixed at 1:1 ratio as per manufacturer's instructions) to produce a colorimetric reaction and then neutralized with 1M sulfuric acid before measuring absorbance at 450 nm on a Victor X5 plate reader.
# Data analysis was performed using a sigmoidal dose-response model within Prism™ software (GraphPad). […] Percent blockade at maximum concentration tested was calculated as an indicator of the ability of the antibodies to block binding of GP130 to CNTFRα/CNTF on the plate as determined from the dose curve. The ratio of the reduction in signal observed in the presence of the highest tested concentration of 200 nM antibody, relative to the difference between the signal with 2.5 nM GP130 with no antibody (0% blocking) and the background signal from HRP-conjugated secondary antibody alone (100% blocking), was subtracted from 100% blocking.
Binder,IC50 [nM],Max Blocking of Antibody at 200 nM (%)
B1,12.3,47.1
B2,–,-18.8
B3,6.51,81.9
B4,–,-22.8
B5,–,-49.2
B6,2.37,104
B7,–,-24.7
B8,–,-46.5
B9,–,-47.1
B10,–,-38.9
B11,–,-3.39
B12,2.37,86.7
B13,–,103
B14,–,-14.8
B15,–,-84.1
B16,–,-15.4
B17,1.1,94.8
